Experiment: soluble on expression in E. coli; label from the status in PepcDB or PDB records

Sequence	soluble on expression in E. coli
GHPTLKTPESVTGTWKGDVKIQCIYDPLRGYRQVLVKWLVRHGSDSVTIFLRDSTGDHIQQAKYRGRLKVSHKVPGDVSLQINTLQMDDRNHYTCEVTWQTPDGNQVIRDKIIELRVRK	soluble
MNFRTGQPSDAAALAAISIEVWLGTYMRKGVSAFFAEYALNEFTSTKMASLLKDPNEHVIVSENEGGIDAFIRLGQGRAAPVSGCSTLEIATLYVQPRHHRRGLGRALLEQGLAYARQASAPSVWLTTNSENAPAIAFYLEQGFEKVGTTHFNIGDQAYLNDVFRRIVSM	soluble
SNAMKPDIYENNREGILCVYKNEKWLVCIKNWKPDNDIEGIAHLEIHHSTDEQFILSAGKAILITAEKENDKFNIELTLMEKGKVYNVPAECWFYSITQKDTKMMYVQDSNCSMDNSDFCDLSKEEIEYIQTNARKLFEK	soluble
MSSPTATKYDVFLSFRGLDTRRNFISFLYKELVRRKIRTFKDDKELENGRRISPELKRAIEESKFAVVVVSVNYAASPWCLDELVKIMDFENKGSITVMPIFYGVDPCHLRRQIGDVAEQFKKHEAREEDHEKVASWRRALTSLASISGECSLKWEDEANLVDEIADKISKNLMTVTTISNGRDLVGIDTHMKALNKKLDLNSNKSLRVVGIWARGYNGRSALAKYVYQDICHWLKVGWLKVYQDIKTASKLYVLTRWLKVAHLLHRSHHSFKTE	soluble
MNSEQADILDLLSGHTDDTTIERLAFECLLTNMTDDRVVSLMNILGWQGDFNCFAIGGVPSASLASTSLAIRKAVRDLGGEHVVIGTYGTFLLALACQMGAVTPEVTCTAVMPAFSEDEPLYLSPVRSGVAGASHALRETMFSLQAAPALSTPSRPLRADELLPERALLGDDYAREELYRNVYQVLRGENPDDPTYLTVSTFLKYGSSLENTAKELNVHPNTVRYRLKRAAETTGWDATDPRDAYVLTTALAIGRMRDR	soluble
MSKKCLITGGAGFIGSHLAEELVGRGYNVTIVDNFYKGKNKYHDELMKEIRVIPISVLDKNSIYELVNQHDVVFHLAAILGVKTTMEKSIELIETNFDGTRNILQAALKGKKKVVFASTSEVYGKAKPPFSEEGDRLYGATSKIRWSYAICKTLEETLCLGYALEGLPVTIVRYFNIYGPRAKDGPYAGVIPRFISAALQGEDILVYGDGEQTRCFTYVSDAVEATIRAMDEKVNGEIINIGSENEKSIKEVAEVIKKLTDSSSKIVQVPFEEVYPHGFEEIPNRRPDVTKLKDLVQFQAKVTWEDGLKETIKWFREEDNG	soluble
MGSDKIHHHHHHMNAPDTSLAGASTASTASYDSAADGYNFAYLDEQTKRMLRRALLKAVAVPGYQVPFASREMPLPFGWGTGGIQVTAAIIGRKDTLKVIDQGSDETTNAVNIRRFFARTTGVATTRRTVDATIIQTRHRIPETPLTERQILVYQVPMPEPLFRLEPRVAECRKLHALADYGLISVKLYEDIVHHGSIATTYDYPVIVNHRYLASPSPIPKFDNPKMHMNPALQLFGAGRERRIHAIPPYTPVRSLDFDDHPFEVQKWHHACALCGSTESFLDEMIVDDAGKRMFVCSDSDYCHERRGDADFDPPSRDAGKGEPA	not soluble
MPFHLALGLSNCEQIYEPGGTIEGYVTFDLRESVKVKAIRISAEGLATTKWLLSESSKSSHGRSREVSYSAKVTYLDEEQMVWKPSEGHSKSSVFPGIHVYPFKFQIPIGVPPSFEGDHGNIRYHMKATVERPWKTNRSVTRYLTILPPKDLNKEVLASEETSSWKSKKIRIPKKGYVPGETISIETNIDNMSSRPILKTECYLIQQCRFLAYRYGISGPTDGRRASSLSENDRYLSRKRDEIKIVSVIHEMHIEPRTEHKAKMRLKIPCTCPTFDSTLIHVEYFVVVKLHVKCRMRNTVKAECPIIIGSKPLADEHVDPRTPTYQEVATFSALTHRSMMSVDEKLTPKYVYYPKYGKSRDDEADEPPSLTDLQLPPIDSLSDDD	not soluble
MSDSKCDSQFYSVQVADSTFTVLKRYQQLKPIGSGAQGIVCAAFDTVLGINVAVKKLSRPFQNQTHAKRAYRELVLLKCVNHKNIISLLNVFTPQKTLEEFQDVYLVMELMDANLCQVIHMELDHERMSYLLYQMLCGIKHLHSAGIIHRDLKPSNIVVKSDCTLKILDFGLARTACTNFMMTPYVVTRYYRAPEVILGMGYKENVDIWSVGCIMGELVKGCVIFQGTDHIDQWNKVIEQLGTPSAEFMKKLQPTVRNYVENRPKYPGIKFEELFPDWIFPSESERDKIKTSQARDLLSKMLVIDPDKRISVDEALRHPYITVWYDPAEAEAPPPQIYDAQLEEREHAIEEWKELIYKEVMDWEERSKNGVVKDQPSDAAVSSNATPSQSSSINDISSMSTEQTLASDTDSSLDASTGPLEGCR	soluble
MSLSAGETDERLRIATTTSLYDTKLLDTLESRFEEKYGIEVDVISGGTGFALEQGRRGDVDLLLVHDKAREYEFIAEGYGTERRCFAYNYFYIVGPADDPAGIKGTNASEAFRMIADAGEKNSNVRFVSRGDNSGTHAREKLLWKSAGIEPSGSWYLESGQGMGATLIMVDEKRAYTLTDMSTYMAFAGNLSLVPLVTESEELLNVYAAIPVSASEHLDDAERFVEFLLSQEGQEIIAGYGKDIYGRALFYPAAGHCTEIGCNATECPGEMVSAFGEGHHHHHH	soluble
MFLRLFKYLWPERYLPEIPAQDPFDENPPPCGPGRVGVLLVNLGTPDEPTRGAIRRYLGEFLSDPRVIEIPRYLWMPILHGLVLAMRPKKLAPRYAGIWMEEGSPLLVYSQRQAAGVRQGLAARGVHAEVELAMRYGKPSIPAAITALRERGCDHILAVPLYPQYAASTTATVVDAVTRHAGRLRDQPALRFVKRFHNDPAYVEAQAGRIAEFWQAHGRPQKLVMSFHGLPRYSIELGDPYYRDCLDTARLLRERLGLREDEVEVTFQSRFGSARWLEPYTEPTLAELARQGVTEVDVVCPGFVADCLETLEEISQECRDAFVAAGGRQFRYIPALNDCPPWIEGLTDLVERQLRGWPTGNP	not soluble
MNRRLELYYTRQLLVISKYCQDQTKEIVLPTVGQNIGDSWITDIFVKLREKLVKYTTQVSRPLATKVVQDSQKEVDAQIAEHTKSIIGVDLTPFYRASDIQDVVDTNIAANVALIKSIPNQYVDKLEALVMNAFQTGQTNEDLAKAIAQLGQSTDSRARLIAADQMGKVNGQINKARQLSMGVETYVWQTAKDERVRKDHQHKQGKTFRWDDPPTGGHPGEPIRCRCTALPNYEDILVD	not soluble
MGSDKIHHHHHHMPRKPIPALPPLDWLRSFEAAARLSNFTAAAAELGLTQAAVSQHIRLLEERLKTRLFSRLARGVALSPEGAAYLPHIQSAFATISSSTTELFEPRAVQTVSIRVPISFALLILVPALPDLAEALPRIQLDLVTIHRPTDYDLPGSALDIRFGNGSFPGREAGRLTAERLVPVASPALAGAADWTALPLLLVAGAREMWAEWFAAAGLAGHPQRSHRFDSFVAAMEAASAGAGVLLGSRPLVDAALRNRTLVPLSDFELSSSSGHFLTSASTARLTSAEQDFRQWLLGHLSRKAPA	not soluble
MIRYKIYQNQQKKGLNAGKWFARAVSDETFDLSKLAEHMSKHNSPYSSGVIKGVLTDMVDCIKELLLDGKSVKIDDLAIFGVGIRSKAAETLEEFSLEKNITGMRLKARATGNLSTTNLKLDSQLKQQAEYQKPTTPGGGGSGSGNTPDPKPNPDEGDEEAPDPTV	not soluble
MNTIPLHTILKLMAHPERMAILIQLLDSERNIAELAKSLSLPATAVSNHLNRLRVEGLVDFTRYHRIIEYRLVSEEAAAILHTVRDLENKRVA	not soluble
MLMPRQTTPPLSLPLVGGGRFDLSAETSTRWTLICFYRGLHCPICATYLKELEKRVADFAERGVACVAVSSDSEERAQAMAEKVGGGTLRFAYDLPLAEARDWGLYISTSRGKTSIGIEEPALFSEPGLFLVTPERTLYYGAVQTMPFVR	not soluble
MPMNRLISHIERSISIHKCVVVPSLGGFVAELLPACYDRDDNLIYPPKEELRFNAALSLRDGILEDSYARAYGISHRRARVMLDDDVRTLRAELVRAGRVSLEKMGELTLNPEGQISYSHRSEAEEGSGFSYGLAPCSLPRLAESFDEARPFAEREKEALSVGRSDYFYLKIHKRTGMMAAAAVMSAVLLVVPWGQISSSDKFAASFVPTELTAKSVWKDTEARPVQVVTAKPASVATTADSQPIEATASKPAESPNQLSTDVAEGGVPVMHEPVGSKCYYVVVGTFDTKKKAQEFYRMSIDKAIMPNAVVLLSSNKARIYSDRFATADEAQTYIRSMKDKHRLFADAWVYAGR	not soluble
MGVMNKGDSVEKCYMCDAEGNTKEHVPPKCIFPEAKDVPSGDNYKKNLITVRSCEKHNTAKSKDDVYLLFFLAANVVSNDLAQTQFGTKIMRAVNRTPHVFAQFAKKNTPVTLKGENGELIHTAAIEIDRARFDAAIEHISHALHYHKYGETFIGDIQVITSGLVDLSSIDSVEVNDRIQNFGQMVDELLADVEPEGDNPEVFTYKVLKTDEPHQVIIQMNFYGGFKIVSIMKYS	not soluble
MSLATSAFCAISSAALADGGQTKLPLLELPGIEDRDYWVPGEVNVEGKLEAMQAVVGAKAVPFAGTQAEPIQIAMIYPSADTSDFWARNYIAMTKRLEELGIQFETTEFASRQIEHSLQSTYANQVVQDADLYDFVIFGPSELAIQADNIDKMAASEGFSTFVWAFHTPLKDLKNQPDGWFDFSSAAGALTMCDYMLGRLGNDVTMAMNRGIPGITDDQRSGDFKACVEEKGNWTTIYEHYGEYQREGGFEGTSLILQAYPEATVIHNANTAMAMGSVEAQISVGKEKEVFSTGWGGTGLELDAIRRGELDATPMRMGDDVGAATAEAIKAHLEGRSDELPFVFLGRITVAHDQMSAEEIDALEAEAFRFSGVGALEREGHHHHHH	soluble
MRPKKDGLEDFLRLTPEIKKQLGSLVSDYCNVLNKEFTAGSVEITLRSYKICKAFINEAKAHGREWGGLMATLNICNFWAILRNNRVRRRAENAGNDACSIACPIVMRYVLDHLIVVTDRFFIQAPSNRVMIPATIGTAMYKLLKHSRVRAYTYSKVLGVDRAAIMASGKQVVEHLNRMEKEGLLSSKFKAFCKWVFTYPVLEEMFQTMVSSKTGHLTDDVKDVRALIKTLPRASYSSHAGQRSYVSGVLPACLLSTKSKAVETPILVSGADRMDEELMGNDGGASHTEARYSESGQFHAFTDELESLPSPTMPLKPGAQSADCGDSSSSSSDSGNSDTEQSEREEARAEAPRLRAPKSRRTSRPNRGQTPCPSNAAEPEQPWIAAVHQESDERPIFPHPSKPTFLPPVKRKKGLRDSREGMFLPKPEAGSAISDVFEGREVCQPKRIRPFHPPGSPWANRPLPASLAPTPTGPVHEPVGSLTPAPVPQPLDPAPAVTPEASHLLEDPDEETSQAVKALREMADTVIPQKEEAAICGQMDLSHPPPRGHLDELTTTLESMTEDLNLDSPLTPELNEILDTFLNDECLLHAMHISTGLSIFDTSLF	not soluble
MHHHHHHVMIMKAFISENVRGIYAFDENGNLIEKRYFTDKPEKVLDQLLKGEITKDLEELLNSLKEKGYDEFVFEHPELSRRAKELGFSATTEFPNIAGERLRSNPEEFLGENWFEEYYKVGVALTRMRIQEQSGARDKMVIQAIEALDDVDKVINLLVARLREWYSLHFPELDELLPKHPQYVAFVKTVGHRDNINEEVLRELGLSEEKIKKILEAKEKTMGAWMDQTDIEVVRQLAEEIDRLYQLRKKLEDYIDRAMDDVAPNLKALVGAKLAARLISLAGGLRELAMMPSSTIQVLGAEKALFRHLRTGAKPPKHGVIYQYPAINRSPWWQRGKIARALAGKLAIAARVDYFSGEYIAEELKKELEARIREIK	soluble

Source: the DeepSol protein solubility set
